B1: TPR t1 (parent)
chain: GACCAAUCUGCCCUCAGAGCUCGAGAACAUCUUCGGAUGCAGAGGAGGCAGGCUUCGGUGGCGCGAUAGCGCCAACGUCCUCAACCUCCAAUGCAUCCCACCACAUGAUGAUGCCUGAAGAGCCUUGGUUUUUUG

Variants of: B1
Experiment: polymerase ribozyme fitness, log enrichment relative to wild type (log ratio); higher = more active; in vitro selection for triplet polymerase activity
Method in brief: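 For each subunit of a heterodimeric triplet polymerase ribozyme, a mutant library was built by PCR and transcribed, then taken through a single in vitro selection round in triplicate. Selection involved annealing to a biotinylated primer, the partner subunit and triplets, incubation frozen at −7 °C, gel excision of extended constructs, capture on streptavidin beads and RT-PCR. Genotypes were retained after Illumina sequencing of inputs and outputs only with ≥10 input reads and ≥1 read in each output. Fitness is defined as the logarithm of a genotype's enrichment relative to wild-type enrichment, using inverse-variance-weighted averages across replicates, with the logarithm taken to base 2.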

Row | Variant | polymerase ribozyme fitness (log ratio)
1 | A75U U81G | -3.97
2 | C76U A91G | -2.17
3 | C76U A91C | -2.38
4 | C73A U116A C124A | 0.809
5 | C73G C104U | -0.454
6 | A74U G93U G120A U125G U129G | -2.55
7 | A75G U96A A105G | -6.14
8 | C76A C82U A95G C104G G120C | -5.79
9 | A75U C79G C88U U130G | -2.82
10 | C73U A108U | -5.75
11 | A75G A90C C101G | -4.09
12 | A74C C104A C114A | -4.14
13 | A74U C101U | -0.51
14 | C72U U78C C82G C101A A121C | -0.0659
15 | A74C G117U | -2.81
16 | A74U U129A | -1.52
17 | A75G C102A | -1.52
18 | A74C C89A U96A C115A | -3.51
19 | C72U U78C U81A A83G | -1.17
20 | C73U A100C | -1.34
21 | C76G U106C G128C | -3.27
22 | C73U C94U U129A | -1.17
23 | A74C C89A A91G C102A U109G | -5.5
24 | C72U U125G | -2.26

Row | Variant | polymerase ribozyme fitness (log ratio)
25 | C72U U125C | -1.92
26 | A75U C104A A121U C124U | 0.403
27 | C72U G113U G120U U130C | -3.5
28 | C73U G110A G117A C124U | -4.95
29 | A74U C115U A118U C124U | -0.812
30 | C76A U106A | -1.33
31 | A74C U87G U129C | -0.576
32 | C72U G117U | -2.27
33 | C72U G117A | -1.29
34 | C72U U116G | -2.57
35 | C72U U116C | -0.368
36 | C72U G135U | -1.38
37 | A74G A91C C124G | 0.0731
38 | C73A G135U | -1.25
39 | C73A A119U U132C | -0.485
40 | C73A A111U | -2.93
41 | A74U C82G C123U U131A U134C | 0.478
42 | C73G A108C A118U C123G | -4.86
43 | C76U A118G | -0.0957
44 | C73G C124U | 0.25
45 | C73G C82A | -1.99
46 | C73U C89G A100U | -2.03
47 | C73A G110C U125A U129A | -6.92
48 | A74U A118U | -0.576

Row | Variant | polymerase ribozyme fitness (log ratio)
49 | C73U A84G G117C | -4.85
50 | C73U U87C C88U A111G C123A | -2.06
51 | A75G U87A | -0.246
52 | A74G G77U C98U C104A | -2.74
53 | A75G G117A | -1.28
54 | C73G A121G | 1.16
55 | C73U C102A U131A | -1.19
56 | C73A U92A | -2.45
57 | C73A U92C | -0.541
58 | C73U C98U | -0.593
59 | C72U U106A | 0.0802
60 | C73G G120U | -0.78
61 | C73U C101U G122A | -0.395
62 | C73U U92A G93A | -4.03
63 | C73G C85G G120A | -2.18
64 | C76G G120A | 0.286
65 | C73G A75U A83U | -1.08
66 | A74C A95U G113U U125A | -4.37
67 | C73A C94U U130A | -0.716
68 | A75G C82U A83C G93A A105C | -3.08
69 | C76A A105U C124A | -1.25
70 | C76A U81A C89U | -1.33
71 | A75G A83C U130C U132A | 0.388
72 | C73A A90G G107A G117U | -6.33

Row | Variant | polymerase ribozyme fitness (log ratio)
73 | C73U C88U U125G | -1.1
74 | C73A C85A G117A A119G U133C G135C | -0.124
75 | C73U A75U U87A U92A | -4.13
76 | C73U C89A G120U | -2.25
77 | C73U G113C | -1.54
78 | C73U G113U | -3.18
79 | A74U U87G U106G A121U | -0.122
80 | A74U U112A G113C A118C | -3.21
81 | C76G G120U U129A | -1.93
82 | A75G U96A U106G | -3.41
83 | A74U U92G | -3.01
84 | A74U U92A | -3.82
85 | C76A C79G C123G | 0.511
86 | A75U C97U | -0.863
87 | C72U U87G | -1.61
88 | A74G A100U G128U | -3.08
89 | C73U C97A | -3.58
90 | A74G A119G | 0.969
91 | C72U U87G C104A | -0.492
92 | C73A C94U | 0.44
93 | C73A G117C | -2.37
94 | C73A G110A G120A | -1.61
95 | C73U U116A | -3.52
96 | C73G A83G | -1.44

Row | Variant | polymerase ribozyme fitness (log ratio)
97 | A74G A75U U106G | -1.96
98 | C73U U109A | -4.25
99 | C73A C80G | -5.69
100 | A74C C124U | 1.08
101 | C73A | 0.0792
102 | C73U | 0.0933
103 | C73G | -0.606
104 | A74U C80G U112A | -5.78
105 | C73U C123G C124G | 2.14
106 | C73U U130C | 0.504
107 | C73G C101A | -1.3
108 | C72U U81C G93C A119U G120C | -0.213
109 | C73G U125A | -1.21
110 | C73G G127U | -1.75
111 | C76U C102U | -2.21
112 | A74U C88A C104A | -2.72
113 | C72U U78C A83U A90G A121G | 1.89
114 | C73G U78A C94A U125G | -1.59
115 | C76G A119U | -1.37
116 | A74C C82A | -0.0256
117 | A75U C99U G120U | -4.3
118 | C73A U109C C114G C115A G122U | -7.04
119 | A74U C89G U112A | -2.2
120 | C73U G128U | -1.62

Row | Variant | polymerase ribozyme fitness (log ratio)
121 | A74C C102U | -1.76
122 | C76G G113A G122C G135U | -2.49
123 | A74U | -0.247
124 | A74G | 0.0609
125 | A74C | -0.272
126 | C73U C124A | 2.11
127 | C72U U81G | -3.35
128 | A75U G117C | -3.99
129 | C73G G77U U125G U133G | -1.69
130 | A74C U126G | -2.5
131 | C72U U112A G120C | 0.504
132 | A74G C102U | -2.11
133 | A75U G110U A121U | -1.08
134 | C76G U109C A119U C123A | -6.47
135 | C73G C114U | -3.1
136 | C72U U109G | -4.62
137 | C73G U109A C114U C123A U130G U132A | -4.38
138 | C72U U132G G135U | -0.759
139 | C73A G120C | 1.81
140 | C73G C89A C99A G110C | -6.57
141 | C76U C80G U96C G120C | -4.89
142 | A74U A83G | -0.972
143 | C73A C115G | -2.61
144 | C73A C115U | -1.36

Row | Variant | polymerase ribozyme fitness (log ratio)
145 | C76G G113U | -4.13
146 | C73U G93A | -0.23
147 | C76G G93A C115G | -4.44
148 | C76G C89U | -0.321
149 | A74U C115G U129A U130A | -2.87
150 | C73U U96G | -0.308
151 | C76A U78A A91U U112G | -3.63
152 | C73G G120C U130A | -0.0194
153 | A74U A84U A91C C102G G113U C115G A118G G128U | -7.73
154 | A74U A75U U81A G127U | -1.96
155 | C73G G113C C123U G135A | -3.03
156 | C73U A95C | -1.16
157 | C73U U96A U116G U130A | -3
158 | C73G A118U | -0.0973
159 | C72U U81A A91U A118U | -3.42
160 | A74U A119G | 0.812
161 | C73U C86U | 0.0966
162 | C73U C86G | -2.49
163 | A74U A105C | -3.15
164 | C73G C98U U129C | -1.94
165 | C73A C99U | -2.77
166 | C76A C79U C82G A100C C101A | -4.79
167 | C76G C88A C101A U130A | -1.71

— the RNAGym collection of RNA variant scans (doi:10.1073/pnas.2313332121)
